Drawing on article PMC8924070 (Frontiers in Immunology, 2022), this text covers Kd and koff for four molecules.

As usually defined, the Kd is a measure of binding affinity in units of concentration. A low value points to higher affinity. As usually defined, the koff is a measure of how fast the partners let go of each other. Read a high koff as fast dissociation.

Settings in all cases: both partners purified
Assay [1] concerns the target T1, PD-1-ECD (PD-1-E. coli), extracellular domain of programmed cell death protein 1 expressed in E. coli (Homo sapiens, UniProt Q15116).
T1 construct: PD-1 (programmed cell death protein 1), extracellular domain, UniProt Q15116, residues L25-R147; no glycan, no post-translational modification; Cloned into pET-21a(+); also called non-glycosylated PD-1
The experiment in a line: SPR; BIAcore8000, CM5 chip, room temperature; cemiplimab-scFv (695 RU) or camrelizumab-scFv (569 RU) immobilised; PD-1 forms flowed over (PD-1-WT 0-100 nM, PD-1-N58A 50-800 nM, PD-1-E. coli 0-8 μM); 1:1 Langmuir model. (Surface plasmon resonance follows binding to a sensor surface in real time, without labels.)

In assay [2] the target is T2, PD-1-N58A, extracellular domain of PD-1 (residues L25-R147) with N58A, expressed in 293F cells (Homo sapiens, UniProt Q15116, N58A, glycosylated in 293F cells, specifically deficient in N58 glycosylation).
T2 construct: programmed cell death protein 1 (PD-1), extracellular domain, residues L25-R147 of UniProt Q15116, N58A; also called N58A-mutated PD-1; N58 glycosylation-deficient PD-1; not shown: His6, C-terminal, kept
The experiment in a line: SPR; cemiplimab-scFv (695 RU) or camrelizumab-scFv (569 RU) immobilised on a CM5 chip, PD-1 forms flowed over (PD-1-WT 0-100 nM, PD-1-N58A 50-800 nM, PD-1-E. coli 0-8 uM); BIAcore 8000, room temperature; 1:1 Langmuir binding model; mean of three repeats.

For assay [3], the target named is T3, PD-1-E. coli, extracellular domain of PD-1 (residues L25-R147) expressed in E. coli (Homo sapiens, UniProt Q15116).
T3 construct: programmed cell death protein 1 (PD-1), extracellular domain, residues L25-R147 of UniProt Q15116; no glycans (E. coli); Cloned into pET-21a(+); also called PD-1-ECD; non-glycosylated PD-1
Described as above.

T3 sequence (Q15116 25-147): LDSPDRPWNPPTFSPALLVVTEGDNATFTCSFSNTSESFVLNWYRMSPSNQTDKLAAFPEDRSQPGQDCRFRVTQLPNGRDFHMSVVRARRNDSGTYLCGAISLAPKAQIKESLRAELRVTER
T1 sequence (Q15116 25-147): as above
T2 sequence (Q15116 25-147 N58A): as the sequence (Q15116 25-147) above, with N34A counted along it

B1: camrelizumab-scFv (scFv, V domains shown)
VH: EVQLVESGGGLVQPGGSLRLSCAASGFTFSSYMMSWVRQAPGKGLEWVATISGGGANTYYPDSVKGRFTISRDNAKNSLYLQMNSLRAEDTAVYYCARQLYYFDYWGQGTTVTVSS
VL: DIQMTQSPSSLSASVGDRVTITCLASQTIGTWLTWYQQKPGKAPKLLIYTATSLADGVPSRFSGSGSGTDFTLTISSLQPEDFATYYCQQVYSIPWTFGGGTKVEIK
notes: scFv of camrelizumab; Named only in the SPR methods
For the molecule B1, the Kd in assay [1] amounted to 2630 nM.

B2: camrelizumab-scFv (scFv, V domains shown)
VH: B1 VH
VL: B1 VL
notes: scFv of camrelizumab
On to B2, for which the koff in assay [2] amounted to 0.171 s⁻¹; in assay [3], 0.308 s⁻¹.

B3: cemiplimab-scFv (single-chain variable fragment of cemiplimab, VL-(GGGGS)4-VH) (scFv, V domains shown)
VH: EVQLLESGGVLVQPGGSLRLSCAASGFTFSNFGMTWVRQAPGKGLEWVSGISGGGRDTYFADSVKGRFTISRDNSKNTLYLQMNSLKGEDTAVYYCVKWGNIYFDYWGQGTLVTVSS
VL: DIQMTQSPSSLSASVGDSITITCRASLSINTFLNWYQQKPGKAPNLLIYAASSLHGGVPSRFSGSGSGTDFTLTIRTLQPEDFATYYCQQSSNTPFTFGPGTVVDFR
notes: VL of cemiplimab; linker, printed as GGGGS (4); VH of cemiplimab; Cloned into pET-21a(+); Used in the crystal and, by the SPR methods, immobilised on the CM5 chip; also called REGN2810; Libtayo
Consider B3, for which the Kd in assay [1] is 691 nM.

B4: cemiplimab-scFv, single-chain variable fragment of cemiplimab (VL-(GGGGS)4-VH) (scFv, V domains shown)
VH: B3 VH
VL: B3 VL
notes: VL of cemiplimab; structure of the cemiplimab-scFv/PD-1 complex deposited as PDB 7WVM; linker, printed as GGGGS (4); VH of cemiplimab; Cloned into pET-21a(+); also called REGN2810; Libtayo
For B4, the results for the koff in assay [2] and in assay [3] were 0.0274 s⁻¹ and 0.047 s⁻¹, respectively.
